Kd and stoichiometry N data for two molecules are collected here from paper PMC2894447.

Experiment [1] addresses Rabbit skeletal muscle actin, monomeric (G-actin), 100% pyrene labeled (rabbit) (UniProt P68135). As to the kind of experiment: other fluorescence titration.
For a further experiment, the target named is APC-B-ΔN4. Nature of the experiment: SEC + other: sucrose gradient sedimentation velocity.

A word on the Kd: it is the constant that tells how readily two partners part at equilibrium. Low values mean a tighter complex, high ones a looser complex. In the case of “APC-B, the C-terminal Basic domain of adenomatous polyposis coli protein (domain or fragment)”, the Kd in experiment [1] amounted to 17.3 nM.

B1: APC-B-ΔN4 (domain or fragment)
chain: ASTKSSGSGKMSYTSPGRQMSQQNLTKQTGLSKNASSIPRSESASKGLNQMNNGNGANKKVELSRMSSTKSSGSESDRSERPVLVRQSTFIKEAPSPTLRRKLEESASFESLSPSSRPASPTRSQAQTPVLSPSLPDMSLSTHSSVQAGGWRKLPPNLSPTIEYNDGRPAKRHDIARSHSESPSRLPINRSGTWKREHSKHSSSLPRVSTWRRTGSSSSILSASSESSEKAKSEDEKHVNSISGTKQSKENQVSAKGTWRKIKENEFSPTNSTSQTVSSGATNGAESKTLIYQMAPAVSKTEDVWVRIEDCPINNPRSGRS
modifications: not checked
For orientation: stoichiometry N means the number of molecules, sites or subunits per partner or assembly. Turning to B1, the stoichiometry N in the experiment with APC-B-ΔN4 was 1.97.
